Assay results from patent US20230212319A1, “NOVEL ANTIGEN BINDING DOMAINS AND SYNTHETIC ANTIGEN RECEPTORS INCORPORATING THE SAME” (University of Southern California, priority 2020, published 2023).

B1: 22064 (protein)
chain: MALPVTALLLPLALLLHAARPQVQLVESGGGLVQPGGSLRLSCAASGFTFTNHAMSWVRQAPGKGLELVSSISGNGRTTYYADSVKGRFTISRDISKNTLDLQMNSLRAEDTAVYYCAKDGGETLVDSRGQGTLVTVSSLEGGGGSGGGGSGGGGSVEDLKNVFPPEVAVFEPSKAEIAHTQKATLVCLATGFYPDHVELSWWVNGKEVHSGVCTDPQPLKEQPALNDSRYCLSSRLRVSATFWQNPRNHFRCQVQFYGLSENDEWTQDRAKPVTQIVSAEAWGRADCGITSASYHQGVLSATILYEILLGKATLYAVLVSALVLMAMVKRKDSRGRAKRSGSGATNFSLLKQAGDVEENPGPTSMDWIWRILFLVGAATGAHSFEEVQLLESGGGLVQPGGSLRLSCAASGFTFSSYAMSWVRQAPGKGLEWVSSISGSGDYIYYADSVKGRFTISRDISKNTLYLQMNSLRAEDTAVYYCAKEGTGANSSLADYRGQGTLVTVSSTRIQNPDPAVYQLRDSKSSDKSVCLFTDFDSQTNVSQSKDSDVYITDKCVLDMRSMDFKSNSAVAWSNKSDFACANAFNNSIIPEDTFFPSPESSCDVKLVEKSFETDTNLNFQNLSVIGFRILLLKVAGFNLLMTLRLWSSRAKRSGSGVKQTLNFDLLKLAGDVESNPGPSRGHMTEYKPTVRLATRDDVPRAVRTLAAAFADYPATRHTVDPDRHIERVTELQELFLTRVGLDIGKVWVADDGAAVAVWTTPESVEAGAVFAEIGPRMAELSGSRLAAQQQMEGLLAPHRPKEPAWFLATVGVSPDHQGKGLGSAVVLPGVEAAERAGVPAFLETSAPRNLPFYERLGFTVTADVEVPEGPRTWCMTRKPGA
B2: 22063 (protein)
chain: MALPVTALLLPLALLLHAARPQVQLVESGGGLVQPGGSLRLSCAASGFTFTNHAMSWVRQAPGKGLELVSSISGNGRTTYYADSVKGRFTISRDISKNTLDLQMNSLRAEDTAVYYCAKDGGETLVDSRGQGTLVTVSSLEAAAKEDLKNVFPPEVAVFEPSEAEISHTQKATLVCLATGFYPDHVELSWWVNGKEVHSGVCTDPQPLKEQPALNDSRYCLSSRLRVSATFWQNPRNHFRCQVQFYGLSENDEWTQDRAKPVTQIVSAEAWGRADCGFTSESYQQGVLSATILYEILLGKATLYAVLVSALVLMAMVKRKDSRGRAKRSGSGATNFSLLKQAGDVEENPGPTSMDWIWRILFLVGAATGAHSFEEVQLLESGGGLVQPGGSLRLSCAASGFTFSSYAMSWVRQAPGKGLEWVSSISGSGDYIYYADSVKGRFTISRDISKNTLYLQMNSLRAEDTAVYYCAKEGTGANSSLADYRGQGTLVTVSSTRIQNPDPAVYQLRDSKSSDKSVCLFTDFDSQTNVSQSKDSDVYITDKCVLDMRSMDFKSNSAVAWSNKSDFACANAFNNSIIPEDTFFPSPESSCDVKLVEKSFETDTNLNFQNLSVIGFRILLLKVAGFNLLMTLRLWSSRAKRSGSGVKQTLNFDLLKLAGDVESNPGPSRGHMTEYKPTVRLATRDDVPRAVRTLAAAFADYPATRHTVDPDRHIERVTELQELFLTRVGLDIGKVWVADDGAAVAVWTTPESVEAGAVFAEIGPRMAELSGSRLAAQQQMEGLLAPHRPKEPAWFLATVGVSPDHQGKGLGSAVVLPGVEAAERAGVPAFLETSAPRNLPFYERLGFTVTADVEVPEGPRTWCMTRKPGA
B3: 21990 (protein)
chain: MALPVTALLLPLALLLHAARPQVQLVESGGGLVQPGGSLRLSCAASGFTFTNHAMSWVRQAPGKGLELVSSISGNGRTTYYADSVKGRFTISRDISKNTLDLQMNSLRAEDTAVYYCAKDGGETLVDSRGQGTLVTVSSLEDLKNVFPPEVAVFEPSEAEISHTQKATLVCLATGFYPDHVELSWWVNGKEVHSGVCTDPQPLKEQPALNDSRYCLSSRLRVSATFWQNPRNHFRCQVQFYGLSENDEWTQDRAKPVTQIVSAEAWGRADCGFTSESYQQGVLSATILYEILLGKATLYAVLVSALVLMAMVKRKDSRGRAKRSGSGATNFSLLKQAGDVEENPGPTSMDWIWRILFLVGAATGAHSFEVQLLESGGGLIQPGGSLRLSCAASGFTFSSHAMTWVRQAPGKGLEWVSAISGSGDYTHYADSVKGRFTISRDNSKNTVYLQMNSLRAEDSAVYYCAKDEDGGSLLGHRGQGTLVTVSSTRIQNPDPAVYQLRDSKSSDKSVCLFTDFDSQTNVSQSKDSDVYITDKCVLDMRSMDFKSNSAVAWSNKSDFACANAFNNSIIPEDTFFPSPESSCDVKLVEKSFETDTNLNFQNLSVIGFRILLLKVAGFNLLMTLRLWSSRAKRSGSGVKQTLNFDLLKLAGDVESNPGPSRGHMTEYKPTVRLATRDDVPRAVRTLAAAFADYPATRHTVDPDRHIERVTELQELFLTRVGLDIGKVWVADDGAAVAVWTTPESVEAGAVFAEIGPRMAELSGSRLAAQQQMEGLLAPHRPKEPAWFLATVGVSPDHQGKGLGSAVVLPGVEAAERAGVPAFLETSAPRNLPFYERLGFTVTADVEVPEGPRTWCMTRKPGA
B4: 22075 (protein)
chain: MALPVTALLLPLALLLHAARPQVQLVESGGGLVQPGGSLRLSCAASGFTFTNHAMSWVRQAPGKGLELVSSISGNGRTTYYADSVKGRFTISRDISKNTLDLQMNSLRAEDTAVYYCAKDGGETLVDSRGQGTLVTVSSLEGQPKANPTVTLFPPSSEELQANKATLVCLISDFYPGAVTVAWKADGSPVKAGVETTKPSKQSNNKYAASSYLSLTPEQWKSHRSYSCQVTHEGSTVEKTVAPTECSGRADCGFTSESYQQGVLSATILYEILLGKATLYAVLVSALVLMAMVKRKDSRGRAKRSGSGATNFSLLKQAGDVEENPGPTSMDWIWRILFLVGAATGAHSFEEVQLLESGGGLVQPGGSLRLSCAASGFTFSSYAMSWVRQAPGKGLEWVSSISGSGDYIYYADSVKGRFTISRDISKNTLYLQMNSLRAEDTAVYYCAKEGTGANSSLADYRGQGTLVTVSSTRIQNPDPAVYQLRDSKSSDKSVCLFTDFDSQTNVSQSKDSDVYITDKCVLDMRSMDFKSNSAVAWSNKSDFACANAFNNSIIPEDTFFPSPESSCDVKLVEKSFETDTNLNFQNLSVIGFRILLLKVAGFNLLMTLRLWSSRAKRSGSGVKQTLNFDLLKLAGDVESNPGPSRGHMTEYKPTVRLATRDDVPRAVRTLAAAFADYPATRHTVDPDRHIERVTELQELFLTRVGLDIGKVWVADDGAAVAVWTTPESVEAGAVFAEIGPRMAELSGSRLAAQQQMEGLLAPHRPKEPAWFLATVGVSPDHQGKGLGSAVVLPGVEAAERAGVPAFLETSAPRNLPFYERLGFTVTADVEVPEGPRTWCMTRKPGA

tested on: L363 cells; experiment: JNG assay, co-culture with L363 cells; type: cell-based; conditions: co-culture with L363
Method: Cellular supernatant is collected and assayed for the induction of cytokines (e.g., IL2).
JNG (Jurkat cells expressing EGFP under an NFAT promoter) were infected with lentiviral vectors encoding different single chain and multi-chain SARs by spinfection in the presence of 8 µg/ml of Polybrene® (Sigma, Catalog no. H9268). The Jurkat-NFAT-GFP cells are engineered in such a way that the IL-2 promoter, which carries NFAT binding sites, is cloned upstream of the GFP gene. These cells have been used to study signaling via TCR and CAR. The different SARs were stably expressed in Jurkat NFAT-GFP cells by lentiviral mediated gene transfer, followed by selection with puromycin or blasticidin. No drug selection was used in case the construct lacked an antibiotic resistance gene. The SAR-expressing Jurkat-NFAT-GFP cells were cocultured with the target cells at E:T ratio of approximately 1:2 for approximately 4 hours to 18 hours. When the interaction between SIRs and their target antigen results in activation of the NFAT pathway, GFP expression is induced. […] GFP expression was monitored by FACS analysis. The Jurkat-NFAT-GFP (parental) cells were used as control. The structure of different constructs can be determined based on their names. […] The sequence of the other constructs in the table can be similarly determined from their names and by referring to the different Tables of this disclosure that provide the names and SEQ ID NO of the different modules. Alternatively, the composition and modular architecture of the different SAR constructs can be determined from their sequences by bioinformatics tools, including using nucleic acid and amino acids homology searches. A SAR is considered positive in the assay in case the SAR expressing Jurkat-NFAT-GFP cells show greater % GFP positive cells when cultured with the target cell line as compared to parental Jurkat-NFAT-GFP cells. […] In general, the number +/-, +, 2+, 3+, 4+, 5+ refer to approximately 5%, 10%, 20%, 30%, 40% and 50% GFP positive cells. The % of GFP induction in the above assay is dependent not only the relative strength of the SAR but also, among other factors, on the relative level of expression of the SAR in the JNG cells and the relative level of expression of the target antigen in the target cell line. To control for the difference in gene transduction efficiency of the different SAR constructs, the experiment was conducted with JNG cells transduced with SAR constructs co-expressing a drug resistance gene (e.g., puromycin or PAC) followed by drug selection to generate a stable population of SAR-expressing cells. It is to be noted that the drug resistance gene (e.g., PAC) in the SAR constructs is optional and in vivo studies were conducted with SAR constructs lacking the PAC gene.

Molecule	NFAT-GFP ASSAY: L363
B1	L363 (+/-) (refer to approximately 5%, 10%, 20%, 30%, 40% and 50% GFP positive cells)
B2	L363 (+/-) (refer to approximately 5%, 10%, 20%, 30%, 40% and 50% GFP positive cells)
B3	+ (refer to approximately 5%, 10%, 20%, 30%, 40% and 50% GFP positive cells)
B4	+/- (refer to approximately 5%, 10%, 20%, 30%, 40% and 50% GFP positive cells)
